Reference: patent US20150258192A1, “COMPOSITIONS AND METHODS FOR PREVENTING OR TREATING CHRONIC LUNG ALLOGRAFT DYSFUNCTION (CLAD) AND IDIOPATHIC PULMONARY FIBROSIS (IPF)” (priority 2014, published 2015)
No end group written: not given here.

biological target: T1, Bmx(h) (Homo sapiens, UniProt P51813); assay: Kinase Profiling Assay; assay type: biochemical; settings: peptide 100 μM
T1 sequence (P51813 1-675): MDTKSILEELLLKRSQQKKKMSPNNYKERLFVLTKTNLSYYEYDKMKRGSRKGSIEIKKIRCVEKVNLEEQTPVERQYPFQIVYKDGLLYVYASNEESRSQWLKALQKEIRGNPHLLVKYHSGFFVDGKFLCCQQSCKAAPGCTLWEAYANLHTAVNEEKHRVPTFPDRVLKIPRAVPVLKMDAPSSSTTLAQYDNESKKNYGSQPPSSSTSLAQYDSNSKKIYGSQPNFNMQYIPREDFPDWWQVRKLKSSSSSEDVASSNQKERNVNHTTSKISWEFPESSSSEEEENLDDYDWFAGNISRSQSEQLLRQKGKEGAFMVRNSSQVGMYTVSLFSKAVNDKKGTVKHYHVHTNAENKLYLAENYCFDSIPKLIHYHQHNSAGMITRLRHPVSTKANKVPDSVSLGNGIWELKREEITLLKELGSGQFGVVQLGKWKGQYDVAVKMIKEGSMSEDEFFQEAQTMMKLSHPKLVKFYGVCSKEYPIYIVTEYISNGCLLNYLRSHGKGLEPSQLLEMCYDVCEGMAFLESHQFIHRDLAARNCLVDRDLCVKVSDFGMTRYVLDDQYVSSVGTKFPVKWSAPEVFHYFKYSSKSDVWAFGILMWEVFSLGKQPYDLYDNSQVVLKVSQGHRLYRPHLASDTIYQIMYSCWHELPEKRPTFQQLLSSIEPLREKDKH
Procedure, shortened: (§1)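 Measured twice per kinase, activity in presence of MK2 inhibitory peptide was calculated against a 100% activity control after radiometric phosphorylation of a cationic substrate, anionic filter capture and scintillation counting; one of 266 human kinases profiled for specificity.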

Row | Sequence | % activity [%]
1 | HRRIKAWLKKIKALARQLGVAA (Mammal) [MMI-0500] | 45
2 | KAFAKLAARLYRKALARQLGVAA [MMI-0400] | 26
3 | YARAAARQARAKALARQLGVAA [MMI-0100] | 62
4 | YARAAARQARAKALNRQLGVA (Mammal) [MMI-0200] | 76

biological target: CSK(h) (Homo sapiens, UniProt P41240); assay: Kinase Profiling Assay; assay type: biochemical; settings: peptide 100 μM
Sequence (P41240 whole entry): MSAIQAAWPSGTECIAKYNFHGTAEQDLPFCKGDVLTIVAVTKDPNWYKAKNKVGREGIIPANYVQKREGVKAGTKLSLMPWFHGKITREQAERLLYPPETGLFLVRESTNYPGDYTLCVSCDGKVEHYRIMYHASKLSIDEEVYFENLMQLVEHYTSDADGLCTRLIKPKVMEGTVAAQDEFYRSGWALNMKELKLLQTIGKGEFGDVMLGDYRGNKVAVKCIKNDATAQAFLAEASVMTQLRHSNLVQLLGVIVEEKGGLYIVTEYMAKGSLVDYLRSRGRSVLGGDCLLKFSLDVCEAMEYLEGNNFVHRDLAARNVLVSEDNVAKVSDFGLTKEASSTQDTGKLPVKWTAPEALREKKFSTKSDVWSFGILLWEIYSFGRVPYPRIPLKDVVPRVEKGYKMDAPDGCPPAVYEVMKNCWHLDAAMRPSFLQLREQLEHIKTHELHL
Procedure, shortened: as §1

Row | Sequence | % activity [%]
5 | FAKLAARLYRKALARQLGVAA [MMI-0300] | 49
6 | HRRIKAWLKKIKALARQLGVAA (Mammal) [MMI-0500] | 2
7 | KAFAKLAARLYRKALARQLGVAA [MMI-0400] | 16
8 | YARAAARQARAKALNRQLGVA (Mammal) [MMI-0200] | 33

biological target: EGFR(L861Q)(h) (Homo sapiens, UniProt P00533, L861Q); assay: Kinase Profiling Assay; assay type: biochemical; settings: peptide 100 μM
Procedure, shortened: as §1

Row | Sequence | % activity [%]
9 | FAKLAARLYRKALARQLGVAA [MMI-0300] | 25
10 | HRRIKAWLKKIKALARQLGVAA (Mammal) [MMI-0500] | 15
11 | KAFAKLAARLYRKALARQLGVAA [MMI-0400] | 22
12 | YARAAARQARAKALARQLGVAA [MMI-0100] | 53
13 | YARAAARQARAKALNRQLGVA (Mammal) [MMI-0200] | 74

biological target: EphA7(h) (Homo sapiens, UniProt Q15375); assay: Kinase Profiling Assay; assay type: biochemical; settings: peptide 100 μM
Sequence (Q15375 28-998): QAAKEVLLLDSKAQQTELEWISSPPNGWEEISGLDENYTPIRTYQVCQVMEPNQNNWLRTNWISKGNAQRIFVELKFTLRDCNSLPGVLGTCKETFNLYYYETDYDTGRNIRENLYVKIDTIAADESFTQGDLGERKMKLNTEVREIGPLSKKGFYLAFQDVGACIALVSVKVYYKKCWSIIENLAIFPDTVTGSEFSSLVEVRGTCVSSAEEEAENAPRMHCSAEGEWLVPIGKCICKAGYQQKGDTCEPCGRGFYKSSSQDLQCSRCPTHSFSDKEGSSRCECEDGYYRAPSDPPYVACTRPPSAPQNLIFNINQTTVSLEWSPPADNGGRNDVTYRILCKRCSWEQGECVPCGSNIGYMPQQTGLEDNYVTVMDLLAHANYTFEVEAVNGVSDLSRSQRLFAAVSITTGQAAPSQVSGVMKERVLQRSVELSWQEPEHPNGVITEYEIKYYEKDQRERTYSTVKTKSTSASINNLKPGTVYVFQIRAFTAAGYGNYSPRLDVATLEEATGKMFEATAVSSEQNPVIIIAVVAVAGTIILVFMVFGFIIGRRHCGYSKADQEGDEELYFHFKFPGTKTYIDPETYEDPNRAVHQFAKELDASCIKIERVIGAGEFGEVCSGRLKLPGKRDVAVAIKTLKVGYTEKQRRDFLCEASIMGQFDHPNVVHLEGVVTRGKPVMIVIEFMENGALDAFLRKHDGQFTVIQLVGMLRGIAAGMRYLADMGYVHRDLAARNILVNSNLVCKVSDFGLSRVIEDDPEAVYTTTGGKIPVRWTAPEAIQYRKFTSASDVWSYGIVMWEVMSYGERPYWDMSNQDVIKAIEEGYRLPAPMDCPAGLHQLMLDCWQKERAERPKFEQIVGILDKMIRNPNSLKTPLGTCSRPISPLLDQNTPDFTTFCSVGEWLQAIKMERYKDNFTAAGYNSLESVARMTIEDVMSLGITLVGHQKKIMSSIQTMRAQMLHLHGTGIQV
Procedure, shortened: as §1

Row | Sequence | % activity [%]
14 | FAKLAARLYRKALARQLGVAA [MMI-0300] | 159
15 | HRRIKAWLKKIKALARQLGVAA (Mammal) [MMI-0500] | 189
16 | KAFAKLAARLYRKALARQLGVAA [MMI-0400] | 222
17 | YARAAARQARAKALARQLGVAA [MMI-0100] | 193
18 | YARAAARQARAKALNRQLGVA (Mammal) [MMI-0200] | 220

biological target: T2, IR(h), activated (Homo sapiens, UniProt P06213); assay: Kinase Profiling Assay; assay type: biochemical; settings: peptide 100 μM
T2 construct: purchased Millipore
T2 sequence (P06213 1005-1310 limits assumed): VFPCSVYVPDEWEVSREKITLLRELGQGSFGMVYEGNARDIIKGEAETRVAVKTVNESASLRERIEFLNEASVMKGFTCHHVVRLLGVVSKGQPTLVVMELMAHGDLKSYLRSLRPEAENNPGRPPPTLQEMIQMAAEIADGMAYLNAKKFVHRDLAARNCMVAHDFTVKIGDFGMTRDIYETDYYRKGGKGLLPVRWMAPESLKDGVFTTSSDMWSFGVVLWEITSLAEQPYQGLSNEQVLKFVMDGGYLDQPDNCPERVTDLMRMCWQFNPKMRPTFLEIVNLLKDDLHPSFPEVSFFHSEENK
Procedure, shortened: as §1

Row | Sequence | % activity [%]
19 | FAKLAARLYRKALARQLGVAA [MMI-0300] | 79
20 | HRRIKAWLKKIKALARQLGVAA (Mammal) [MMI-0500] | 90
21 | KAFAKLAARLYRKALARQLGVAA [MMI-0400] | 59
22 | YARAAARQARAKALARQLGVAA [MMI-0100] | 127

biological target: T3, JAK2(h) (Homo sapiens, UniProt O60674); assay: Kinase Profiling Assay; assay type: biochemical; settings: peptide 100 μM
T3 construct: purchased Millipore
T3 sequence (O60674 whole entry): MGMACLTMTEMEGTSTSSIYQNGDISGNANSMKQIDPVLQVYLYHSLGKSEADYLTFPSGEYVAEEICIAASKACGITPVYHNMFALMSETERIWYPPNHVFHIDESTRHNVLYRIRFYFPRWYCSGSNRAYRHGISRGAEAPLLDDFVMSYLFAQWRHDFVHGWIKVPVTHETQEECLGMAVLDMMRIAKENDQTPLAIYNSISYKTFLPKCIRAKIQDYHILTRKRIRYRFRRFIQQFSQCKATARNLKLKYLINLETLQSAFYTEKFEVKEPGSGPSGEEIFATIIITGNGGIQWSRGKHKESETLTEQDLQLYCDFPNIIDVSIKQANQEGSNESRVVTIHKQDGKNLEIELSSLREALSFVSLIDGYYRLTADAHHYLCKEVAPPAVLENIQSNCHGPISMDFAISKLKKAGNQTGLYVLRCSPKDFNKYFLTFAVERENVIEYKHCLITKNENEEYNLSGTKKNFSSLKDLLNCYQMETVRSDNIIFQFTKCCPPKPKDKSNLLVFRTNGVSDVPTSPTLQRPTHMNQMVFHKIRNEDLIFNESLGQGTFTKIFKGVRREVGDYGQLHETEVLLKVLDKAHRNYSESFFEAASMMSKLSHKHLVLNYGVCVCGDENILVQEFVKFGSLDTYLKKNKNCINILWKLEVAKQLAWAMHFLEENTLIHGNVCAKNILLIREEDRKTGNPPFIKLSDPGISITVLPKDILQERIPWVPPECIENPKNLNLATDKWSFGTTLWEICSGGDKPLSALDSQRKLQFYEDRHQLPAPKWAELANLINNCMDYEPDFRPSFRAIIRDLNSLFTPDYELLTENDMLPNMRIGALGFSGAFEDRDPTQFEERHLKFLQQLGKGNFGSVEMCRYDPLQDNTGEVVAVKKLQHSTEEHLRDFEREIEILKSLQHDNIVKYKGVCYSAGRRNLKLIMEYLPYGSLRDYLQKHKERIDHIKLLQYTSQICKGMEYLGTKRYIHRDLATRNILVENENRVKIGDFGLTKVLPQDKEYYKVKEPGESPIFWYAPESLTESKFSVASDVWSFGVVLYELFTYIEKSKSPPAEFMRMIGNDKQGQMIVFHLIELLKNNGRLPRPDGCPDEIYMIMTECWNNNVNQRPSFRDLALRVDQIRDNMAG
Procedure, shortened: as §1

Row | Sequence | % activity [%]
23 | FAKLAARLYRKALARQLGVAA [MMI-0300] | 133
24 | HRRIKAWLKKIKALARQLGVAA (Mammal) [MMI-0500] | 49
25 | YARAAARQARAKALARQLGVAA [MMI-0100] | 89
26 | YARAAARQARAKALNRQLGVA (Mammal) [MMI-0200] | 131

biological target: PKCβII(h) (Homo sapiens, UniProt P05771); assay: Kinase Profiling Assay; assay type: biochemical; settings: peptide 100 μM
Sequence (P05771 1-673 isoform P05771-2): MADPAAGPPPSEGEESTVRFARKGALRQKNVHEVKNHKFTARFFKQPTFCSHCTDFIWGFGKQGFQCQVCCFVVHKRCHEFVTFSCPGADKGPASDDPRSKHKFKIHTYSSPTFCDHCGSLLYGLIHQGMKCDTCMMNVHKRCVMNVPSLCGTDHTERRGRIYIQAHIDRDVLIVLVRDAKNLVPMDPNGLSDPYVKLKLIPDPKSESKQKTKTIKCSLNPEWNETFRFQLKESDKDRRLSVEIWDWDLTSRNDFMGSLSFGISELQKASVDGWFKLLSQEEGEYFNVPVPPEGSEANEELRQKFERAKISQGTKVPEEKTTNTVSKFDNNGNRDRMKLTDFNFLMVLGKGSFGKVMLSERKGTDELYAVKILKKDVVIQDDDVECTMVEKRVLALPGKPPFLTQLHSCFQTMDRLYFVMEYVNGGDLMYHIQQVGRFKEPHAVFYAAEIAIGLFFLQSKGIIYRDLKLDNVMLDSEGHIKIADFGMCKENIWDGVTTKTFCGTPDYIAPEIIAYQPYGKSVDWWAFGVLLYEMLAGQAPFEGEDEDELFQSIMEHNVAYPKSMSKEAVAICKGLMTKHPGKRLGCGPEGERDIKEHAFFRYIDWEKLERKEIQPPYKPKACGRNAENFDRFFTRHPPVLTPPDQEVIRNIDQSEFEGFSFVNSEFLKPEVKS
Procedure, shortened: as §1

Row | Sequence | % activity [%]
27 | FAKLAARLYRKALARQLGVAA [MMI-0300] | 82
28 | HRRIKAWLKKIKALARQLGVAA (Mammal) [MMI-0500] | 3
29 | KAFAKLAARLYRKALARQLGVAA [MMI-0400] | 75
30 | YARAAARQARAKALNRQLGVA (Mammal) [MMI-0200] | 100

biological target: T4, PKCμ(h) (Homo sapiens, UniProt Q15139); assay: Kinase Profiling Assay; assay type: biochemical; settings: peptide 100 μM
T4 sequence (Q15139 1-912): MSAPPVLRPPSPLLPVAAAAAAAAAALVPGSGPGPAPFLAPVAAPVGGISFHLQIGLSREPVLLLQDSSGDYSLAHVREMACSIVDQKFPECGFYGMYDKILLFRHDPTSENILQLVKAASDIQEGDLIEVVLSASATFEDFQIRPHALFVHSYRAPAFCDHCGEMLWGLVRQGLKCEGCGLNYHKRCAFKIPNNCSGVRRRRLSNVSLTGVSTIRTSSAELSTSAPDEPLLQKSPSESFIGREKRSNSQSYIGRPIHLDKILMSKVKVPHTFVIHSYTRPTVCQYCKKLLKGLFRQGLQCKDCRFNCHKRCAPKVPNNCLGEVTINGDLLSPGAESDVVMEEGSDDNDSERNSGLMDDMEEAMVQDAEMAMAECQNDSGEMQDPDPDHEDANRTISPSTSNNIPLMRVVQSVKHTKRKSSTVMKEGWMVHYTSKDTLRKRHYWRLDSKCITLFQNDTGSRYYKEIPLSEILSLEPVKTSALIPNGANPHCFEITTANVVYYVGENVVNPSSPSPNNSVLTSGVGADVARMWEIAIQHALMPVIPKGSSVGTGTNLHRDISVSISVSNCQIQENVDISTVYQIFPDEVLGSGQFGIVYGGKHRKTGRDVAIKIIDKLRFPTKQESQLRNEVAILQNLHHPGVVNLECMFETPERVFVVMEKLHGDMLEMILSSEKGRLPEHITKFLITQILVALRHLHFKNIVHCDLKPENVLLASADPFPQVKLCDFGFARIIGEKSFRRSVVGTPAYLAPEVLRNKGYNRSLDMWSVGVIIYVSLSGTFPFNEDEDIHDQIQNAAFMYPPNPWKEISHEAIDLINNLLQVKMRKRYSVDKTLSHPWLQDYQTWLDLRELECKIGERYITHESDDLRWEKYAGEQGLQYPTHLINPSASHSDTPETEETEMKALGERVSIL
Procedure, shortened: as §1

Row | Sequence | % activity [%]
31 | FAKLAARLYRKALARQLGVAA [MMI-0300] | 22
32 | HRRIKAWLKKIKALARQLGVAA (Mammal) [MMI-0500] | 10
33 | KAFAKLAARLYRKALARQLGVAA [MMI-0400] | 14
34 | YARAAARQARAKALARQLGVAA [MMI-0100] | 79
35 | YARAAARQARAKALNRQLGVA (Mammal) [MMI-0200] | 73

biological target: T5, PRAK(h) (Homo sapiens, UniProt Q8IW41); assay: Kinase Profiling Assay; assay type: biochemical; settings: peptide 100 μM
T5 sequence (Q8IW41 1-473): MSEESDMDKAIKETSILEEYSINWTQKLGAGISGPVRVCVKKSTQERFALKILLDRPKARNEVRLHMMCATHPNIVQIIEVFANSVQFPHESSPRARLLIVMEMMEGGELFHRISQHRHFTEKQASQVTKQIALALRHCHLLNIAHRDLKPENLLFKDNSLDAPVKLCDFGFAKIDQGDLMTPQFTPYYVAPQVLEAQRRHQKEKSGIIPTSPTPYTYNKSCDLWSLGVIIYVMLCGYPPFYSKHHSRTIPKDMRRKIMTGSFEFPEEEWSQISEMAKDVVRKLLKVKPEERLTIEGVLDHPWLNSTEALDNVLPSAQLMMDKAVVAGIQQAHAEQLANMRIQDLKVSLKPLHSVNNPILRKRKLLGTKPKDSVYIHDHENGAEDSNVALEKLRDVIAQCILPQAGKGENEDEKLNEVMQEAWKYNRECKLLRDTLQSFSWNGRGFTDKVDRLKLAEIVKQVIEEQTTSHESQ
Procedure, shortened: as §1

Row | Sequence | % activity [%]
36 | FAKLAARLYRKALARQLGVAA [MMI-0300] | 128
37 | HRRIKAWLKKIKALARQLGVAA (Mammal) [MMI-0500] | 95
38 | KAFAKLAARLYRKALARQLGVAA [MMI-0400] | 118
39 | YARAAARQARAKALARQLGVAA [MMI-0100] | 159

biological target: Pim-3(h) (Homo sapiens, UniProt Q86V86); assay: Kinase Profiling Assay; assay type: biochemical; settings: peptide 100 μM
Procedure, shortened: as §1

Row | Sequence | % activity [%]
40 | FAKLAARLYRKALARQLGVAA [MMI-0300] | 80
41 | HRRIKAWLKKIKALARQLGVAA (Mammal) [MMI-0500] | 37
42 | KAFAKLAARLYRKALARQLGVAA [MMI-0400] | 80
43 | YARAAARQARAKALNRQLGVA (Mammal) [MMI-0200] | 94
